Data as given in patent publication US20230233512A1 (UNIVERSITY OF SOUTH CAROLINA, published 2023).
Substitutions are numbered along the chain they refer to. Names and notes keep the numbering of the source.

T1: PACT C213F (recessive DYT16 mutant), O75569
T1 chain: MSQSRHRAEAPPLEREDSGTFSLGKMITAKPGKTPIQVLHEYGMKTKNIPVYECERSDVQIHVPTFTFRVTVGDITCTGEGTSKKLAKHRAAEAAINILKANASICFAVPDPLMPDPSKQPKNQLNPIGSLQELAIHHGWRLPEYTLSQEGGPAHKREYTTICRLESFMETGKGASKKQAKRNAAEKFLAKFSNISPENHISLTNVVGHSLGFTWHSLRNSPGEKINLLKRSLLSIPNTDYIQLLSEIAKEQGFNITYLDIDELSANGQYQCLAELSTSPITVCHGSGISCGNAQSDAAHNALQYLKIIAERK

T2: PACT C213R (recessive DYT16 mutant), O75569
T2 chain: T1 chain with F213R

T3: PACT C77S (recessive DYT16 mutant), O75569
T3 chain: T1 chain with C77S, F213C

T4: PACT N102S (dominant DYT16 mutant), O75569
T4 chain: T1 chain with N102S, F213C

T5: PACT P222L (recessive DYT16 mutant), O75569
T5 chain: T1 chain with F213C, P222L

T6: PACT T34S (dominant DYT16 mutant), O75569
T6 chain: T1 chain with T34S, F213C

T7: wild type (wt) PACT, O75569
T7 chain: T1 chain with F213C

B1: wild type (wt) PACT (other, UniProt O75569 1-313, looked up)
chain: T1 chain with F213C
notes: also called Myc-PACT; flag-PACT
B2: PACT C213F (recessive DYT16 mutant) (other, UniProt O75569 1-313, looked up)
chain: T1 chain
notes: N-terminal Myc or FLAG tag in co-IP; GAL4-DBD or VP16-AD fusion in mammalian two-hybrid; histidine tag in PKR activity assay
B3: PACT C213R (recessive DYT16 mutant) (other, UniProt O75569 1-313, looked up)
chain: T1 chain with F213R
notes: as for B2
B4: PACT C77S (recessive DYT16 mutant) (other, UniProt O75569 1-313, looked up)
chain: T1 chain with C77S, F213C
notes: as for B2
B5: PKR (protein)
chain: MAGDLSAGFFMEELNTYRQKQGVVLKYQELPNSGPPHDRRFTFQVIIDGREFPEGEGRSKKEAKNAAAKLAVEILNKEKKAVSPLLLTTTNSSEGLSMGNYIGLINRIAQKKRLTVNYEQCASGVHGPEGFHYKCKMGQKEYSIGTGSTKQEAKQLAAKLAYLQILSEETSVKSDYLSSGSFATTCESQSNSLVTSTLASESSSEGDFSADTSEINSNSDSLNSSSLLMNGLRNNQRKAKRSLAPRFDLPDMKETKYTVDKRFGMDFKEIELIGSGGFGQVFKAKHRIDGKTYVIKRVKYNNEKAEREVKALAKLDHVNIVHYNGCWDGFDYDPETSDDSLESSDYDPENSKNSSRSKTKCLFIQMEFCDKGTLEQWIEKRRGEKLDKVLALELFEQITKGVDYIHSKKLIHRDLKPSNIFLVDTKQVKIGDFGLVTSLKNDGKRTRSKGTLRYMSPEQISSQDYGKEVDLYALGLILAELLHVCDTAFETSKFFTDLRDGIISDIFDKKEKTLLQKLLSKKPEDRPNTSEILRTLTVWKKSPEKNERHTC

Experiments:
[1] = target: T8, flag-tagged dominant negative PKR mutant, K296R (UniProt P19525 1-551); experiment: co-IP in HeLa cells: Myc-PACT on Myc-agarose, flag-PKR K296R detected by anti-flag blot
T8 construct: Used in the co-IP assays in HeLa cells; also called flag-PKR; flag-tagged K296R
Procedure: (§1) In all cases HeLa M cells were seeded at 20% confluency in 6-well dishes 24 hours prior to co-transfecting 250 ng of each flag- and/or Myc-tagged constructs using Effectene® reagent (Qiagen). Cells were harvested 24 hours post transfection and harvested in IP buffer. Whole cell extract was then immunoprecipitated overnight at 4° C. on a rotating wheel with either flag-agarose (Sigma) or Myc-agarose beads (Thermo Scientific). Immunoprecipitates were then washed 3-5 times in IP buffer followed by resuspension and boiling for 5 minutes in 1×Laemmle buffer. Samples were then resolved on 10% SDS-PAGE denaturing gels and transferred to PVDF membranes. […] The cell lysates were immunoprecipitated in 15 μL of Myc-agarose beads and resolved on 10% SDS-PAGE denaturing gels and transferred to PVDF membranes.
The immunoprecipitates were analyzed by western blot analysis with anti-flag (FIG. 4A) or anti-Myc (FIG. 4B) antibodies (co-IP panel) and with anti-Myc (FIG. 4A) or anti-flag (B) for IP panels.

[2] = target: B4; experiment: mammalian two-hybrid, luciferase reporter; PACT proteins as GAL4-DBD bait and VP16-AD prey
[3] = target: B2; experiment: co-IP in HeLa cells: flag-PACT on flag-agarose, Myc-PACT detected by anti-Myc blot
Procedure: as §1

[4] = target: T1, PACT C213F (recessive DYT16 mutant), …
[5] = target: T2, PACT C213R (recessive DYT16 mutant), …
[6] = target: T3, PACT C77S (recessive DYT16 mutant), …
[7] = target: T4, PACT N102S (dominant DYT16 mutant), …
[8] = target: T5, PACT P222L (recessive DYT16 mutant), …
[9] = target: T6, PACT T34S (dominant DYT16 mutant), …
[10] = target: T7, wild type (wt) PACT, O75569

B1
binding result [1]: binds

B2
binding result [1]: binds | fold higher interaction than wt PACT-wt PACT [2]: ~9 fold

B3
binding result [1]: binds

B4
binding result [3]: binds | binding result [1]: binds

B5
PKR autophosphorylation, in vitro PKR kinase activity assay [4]: In all cases, recessive mutations demonstrated a slightly increased capacity to activate PKR ... as compared to wt PACT | PKR autophosphorylation, in vitro PKR kinase activity assay [5]: In all cases, recessive mutations demonstrated a slightly increased capacity to activate PKR ... as compared to wt PACT | PKR autophosphorylation, in vitro PKR kinase activity assay [6]: In all cases, recessive mutations demonstrated a slightly increased capacity to activate PKR ... as compared to wt PACT | PKR autophosphorylation, in vitro PKR kinase activity assay [7]: The dominant mutants (lower panel) also showed enhanced ability to activate PKR at 400 µg | PKR autophosphorylation, in vitro PKR kinase activity assay [8]: In all cases, recessive mutations demonstrated a slightly increased capacity to activate PKR ... as compared to wt PACT | PKR autophosphorylation, in vitro PKR kinase activity assay [9]: The dominant mutants (lower panel) also showed enhanced ability to activate PKR at 400 µg | PKR autophosphorylation, in vitro PKR kinase activity assay [10]: When the purified recombinant PACT proteins were added, a dose dependent increase (left: 400 µg, right: 4.0 ng) in activated autophosphorylated PKR was observed
